assay: soluble on expression in E. coli; label from the status in PepcDB or PDB records

**Q.** For “KMETAFDIERTMGRRIEYVSNILAVSESELGSLYSYDIMIDLGEEGKAKTPEALRALDSIARHAEAYSLTKRTTSILNILKDLNQTLHDGDQAYYSIPGDAEEVAQQLLLYENAGGSEAESWIDYEYRRLRLKVEMTSYNSGEAEWELQDITDYARKLFPEAEITPVGSLPQFTTMMQYVVRGQ”, which “soluble on expression in E. coli” value is on record?
**A.** not soluble

**Q.** With “MDPELQAIREARLAQLKNNSGGTNGDRNSGANNGGGENSAPVGAAIANFLEPQALERLSRVALVRRDRAQAVETYLKKLIATNNVTHKITEAEIVSILNGIAKQQNSQNNSKIIFERKDFSEDLNSFDKQNAKN” as the sequence, how does the “soluble on expression in E. coli” value read?
**A.** not soluble

**Q.** For “MNNKNLALKAPLSGPVMPLNRVPDPVFSSGTLGEGIAIDPLNDCLHAPCAGLVSHLARTRHALSLRADNGAELLLHVGLDTVQLQGEGFEALVEEGARVIEGQPLLRFDLDRVARGSRSLITVMILTNGDGFQVRPLTTNPVEVGAPLLQLSPEKAEQRPANPAPGEGSAQRQVRGRARVAHHGGLHARPAALLRKTAQGFSSQAELHFAGQVASVDSLVGIMGLGVAEQDEVEVICRGEDSEAALGALLAALASATAGAPKDAPRAIAPGEPARPAAVAGTLAGVCASPGLASGPLARLGAISLPADDGRHRPEEQHLALDQALQRVRDDVQGSLQQARLGGDENEAAIFSAHLALLEDPGLLDAADMLIDQGVGAAHAWHRAIQAQCEILQALGNLLLAERANDLRDLEKRVLRVLLGDTAPLRVPAGAIVAAREITPSDLAPLVDAGAAGLCMAEGGATSHVAILARSKGLPCLVALGAGLLELEEGRQVVLDAGQGRLELSPDARRLEQVALQVAQREEQRRRQQADAQREALTRDGRRIEIGANVASPREAAEAFANGADGVGLLRTEFLFLERRAAPDEEEQRNAYQEVLDAMGQRKVIIRTIDVGGDKHLDYLPLPVEENPALGLRGIHLGQARPELLDQQLRALLRVEPLERCRILLPMVSEVDELRAIRRRLGELATQLGIERLPELGVMIEVPSAALLADQLAEHADFLSIGTNDLSQYALAMDRCHAGLADRIDALHPALLRLIAQTCAGAARHGRWVGVCGALASDPLATPVLVGLGVEELSVGPNLVGEIKTRVRQLDAAECRRHAQALLDLGSARAVRDACLQ”, which “soluble on expression in E. coli” value is on record?
**A.** not soluble

**Q.** Which “soluble on expression in E. coli” value does the source give for “MGSDKIHHHHHHMKRFTLWNSYVAITESKEFVDWNKTKIIGSFKCPAFSYRSSTQIKADPFLFEYNNAIYLFYEEKYKNGKGYIVCTWTSDLKNWSQPVVVLKEPFHLSFPYVFKINDKIYMLPESNESNELRLYECVDFPYKWKLNKIIFDNGKYVDSSIICKGDIYYLFTTHKTENSFYHELYYCNDLLSDKWIKHPQSPISNNPKFARNGGSVFSHNNNLFRPAQDCSVSYGNNLSIFNVTHLSIDKYEETLVATNFFPKYKFKHGGHHFSHIEYKGQNIIAFDKKSREYAITPLFSSLYALICRLMKITSHK” here?
**A.** not soluble

**Q.** For “MGYNETIYHKPFIKINMPDVLGKPDATQIPDDVWLDILINYLQPQDIVNLSEINNRLSRLFKTQHTQSEQLNQKKTLGILKVFAGYSSTFLFARLNGKQRLFKTRNWSAADSDNINPILMPISLPENISVIESIQSTYKHTVVVGRDKHDQIIVATNKINQDYAKQETSHNQLIPLPLRDINISLVSAGNEEDYILNPIFSFPATQQGNCILNCIK”, which “soluble on expression in E. coli” value is on record?
**A.** not soluble

**Q.** For “MNNQTMTFTPEQLRKHAQEMLRHAEQLEKTGITKDAIRKDMVPALRELMQAKHRAQKAVDELVDCVAELETRVGKFEKLVQEALR”, which “soluble on expression in E. coli” value is on record?
**A.** not soluble

**Q.** With “MSLKIWITKNHKSKDDWSRSKKFIIIKITTHDGVEGWGEAFSIHLREKAIATIIIELFKEISKIKNLSINSLYNKISLLSDNHKGLDFSAATSAIEIAAWDIAGKLKNLPLNCLLTDNPKPDVSIYVTCWSDLRKDEEDYLDQVEKYFEKKYGGIKIYPLFENTSNSIKFVDRVRKIVGMEYPLMLDLAIPKDLDQTKTFLKEVSFLKPYWIEEPVDGENISLLTEIKNSFDMKVVTGEKQSGLPHFKEIIKRDAADILNPDISGIGGIIDMLYVSKEALNNDISISPHCWNSMSVSASAMLHVCSSIPNSEKAEIFPDYIEFTKEFCELPFNIVEDKAILNQSAGLGIVIHEDTLSNLSTYRMDEKNEGHHHHHH” as the sequence, how does the “soluble on expression in E. coli” value read?
**A.** soluble

**Q.** With “MGSDKIHHHHHHMFPTFFGISSIHGGQMAHSVSQAYLHISPPQVIGCHDGTTFNSYTNDDSARRYNSKSANKAPPAGQAFGCHESTTFKRTQQVNTPLDVIHPNSNIPNLPPPAFGKCPYPPWQHLDAANTIFIFPPLTVTLITNSRRVSAAAYDSNAIESVMQGTLRKMRTRLDEQGLANYQLLVGDNEVELNPFIGSSIKLVHTGNIFCCNCGKKTKKSYSQGHCFVCMKKLASCDMCIMKPETCHFAEGTCREPEWGEANCFVPHYVYLSNTSGLKVGITRHTQLPTRWIDQGATQGLPILKVSSRQLSGLIEVELAKMIADKTNWRAMLKGNADPLPLKQHAEELLPQIEQHIHSLAMAHGEYAIERLNEEIVAIDYPVSEFPTKIASHNFDKDPVVSGTLLGIKGQYLIFDTGVINLRKFTAYEVSFEAE” as the sequence, how does the “soluble on expression in E. coli” value read?
**A.** not soluble

**Q.** Which “soluble on expression in E. coli” value does the source give for “MKVEGRCHCGAIAYEAEVEPGTITVCHCADCQMQSGSVFRANISAPADTFVLLQGTPKEYLKIAASGARRMHAFCGNCGGPIYSCAAENPQSYSLRVGALEQRHALGRPLRQIWARRRFSWLSSLGDVEEFDGQP” here?
**A.** not soluble

**Q.** With “MHHHHHHIEGRHMLRPGDCEVCISYLGRFYQDLKDRDVTFSPATIEEELIKFCREARGKENRLCYYIGATDDAATKIINEVSKPLAHHIPVEKICEKLKKKDSQICELKYDKQIDLSTVDLKKLRVKELKKILDDWGEMCKGCAEKSDYIRKINELMPKYAPKAASARTDL” as the sequence, how does the “soluble on expression in E. coli” value read?
**A.** soluble

**Q.** Which “soluble on expression in E. coli” value does the source give for “MAKRVYLLSEARGLSRDLLGGKGHGLAEMAAAGLPVPPAFIVTTEACRQYLKAGEVPGLWGEVRAGMAALEGLTGKRFGRGEGKAPPLLVSVRSGAPVSMPGMMDTVLNLGLTLEGVEALARATGNPRFAWDSLRRLLAMYGEVVLGEGPEVFEGMLSALKAERGVGTDAALGPEDLEELAYRYLRHLEARGTPFPLDPWAQLQGAIEAVFRSWQNPRARTYRRIYGIPEDLGTAVVVQAMVFGNLGEDSGTGVGFTRNPATGEKGLYGEYLRNAQGEDVVAGVRTPEPLERLKGYAPGLYEELLQVAERLERHFRDMQDFEFTVERGRLFLLQTRAGKRTAQAAVRIAVEMAEEGLISREEAVMRVEANALPGLLRPSVDRDQAPRPLLKGLPASPGAAVGHAAFTNEAVERFHAQGLPAVLVRPETTPEDITGMYLAKGILTARGGLTSHAAVVARGLGVPAVVGAEALRVFPGEGRALAEGVEIREGDLLTLDGGTGEVYLGAVPLVEAGGEALLEKLLSWAEPHRRLGVRANADTPEDAQRARAFGAEGIGLCRTEHMFFREDRLPWVRRLILAETPEEEALALERLFHFQKEDFKEILRAMDGLPVTVRLLDPPLHEFLPPLEALARRAEEGDEEAGRLLRRAEALKEANPMLGFRGARLLLLRPGVFRMQLRALLEAARELKEAGHDPRPEVMVPLVADPKEVERARALAEELFREYGPIPFGTMVETPRAALLAAEIAPLVDFFSFGTNDLTQMAFGLSRDDAGKFLPRYVEEGLFPFDPTERLDEKGVGRLLRMAAEEGRKANPRLKLGLCGEHGGEAGSVRFVADLLDYTSASPFRVLTARLAAAQAGLSRALKPA” here?
**A.** soluble

**Q.** For “MADFLTRFIREELSWRGYEKAIVAVSGGVDSATTLALAVRALGAERVHALFLPHRESSPTSREHAYLVAETFGVALEEVDITPMVEGYAALTPDLTPHRKGNVMARARMIVLFDKSEAYRALPLGTGNKTERLFGYFTWHGDDTPPVNPLGDLYKTQVWRLAEHLGVPEEVVRKPPTADLIPGQTDEADLGLRYLRADVILEHYLKGYSDQYILGLGFTEEELRRVKERVNRTHWKRALPTVALLSSTAIGEFYLRPLDYRP”, which “soluble on expression in E. coli” value is on record?
**A.** soluble

**Q.** For “NGVPSTNVNTPAPNTGQSTAQNTNTASPLPYNRATTLPAAGTEDLKKSVQALQNTLTELQALQLQTKQAHWNVSGTLWYTLHELLQDHYEGISKFADDVAERQLSVGASSDGRAITIVAASRLPEIPGGFLDDAQVIQFFTYQYETVGQRIHQRVGDVEKVDPTTANLLQEVEHIIEKYQWQMRAFLQNTPTDPNTGFDINNGKPVPLRGR”, which “soluble on expression in E. coli” value is on record?
**A.** soluble

**Q.** With “MAHHHHHHMHTKHTRRPVDTHKRNTMPLIRPGMPKPPQGFDVVLAKLEEYDEQMKLATQEESKGVVGVTTRPRHSGGFGARKRMRDDDANAEDGTVAPPAEASSTVAAAESEAGTSTAGDDNAEAKEEPPIPPLWRMAAINRARTRYVFLAYYKQHIISKEVYDYCVDTRLIDGGLARRWRLPGYERLCCTACGVPGAASLAASITSKYALRDRQERRLTTSASQQRIHDTATCLCRVPAAQRRSKHFVACAACGCHGCCSADAMKGPKEGDGGEKTDKTREEPSVNAPGRGEA” as the sequence, how does the “soluble on expression in E. coli” value read?
**A.** not soluble

**Q.** For “MSLENYLEEELIIGGIEINYLYVCKTKLWYFVRGITMEQESDFVDLGKFLHEKSYFGEEKEVQIGSIKIDFIKKRDVIEIHEVKRGKQMEKAHIMQVLYYIYYLNSLGIKSKAILHYPKLKEIKEIELKENNKEEIKRAIKEIEYIKSLKEPPEPIYQKICKNCAYYELCFIEGHHHHHH”, which “soluble on expression in E. coli” value is on record?
**A.** soluble

**Q.** With “MSNLPFHQFCGTEGYVASRALQDVVNVAIALERPLLLKGEPGTGKTLLAYHIAKALGMEIILWNVKSTTKARDGLYTYDTVQRLNDARFGDGDVRDIRHYIKLGPLGRAFGSAERVVLLIDEVDKADIEFPNDLLFELDEMRFHVLETDEWVSAAHRPVVIVTSNSEKELPDAFLRRCVFHYIDFPDETQMRAIIDVHFPDLPAELMRSACKVFYGLREVPGLRKRPSTSELLDWIRVLLASGARLPEEETPALQSVPFLGALVKIQEDADILAHHASRSADVRTAGRRFFRLEHHHHHH” as the sequence, how does the “soluble on expression in E. coli” value read?
**A.** not soluble

**Q.** For “LRPEDFTTLLQTADFRLRLLEAIAAATRRVYICALYLENEEAGQEMLDALYRAKQRNPQLDVRVMVDWHRAQRGRIGEDQSHCNASWYREEAARRELDIPIYGVPVQTRELFGVLHLKGFVIDDTVFYSGASLNNVYLHKLDKYRFDRYHLIRSPELADAMAGFMAEQFFNDPAVFRLD”, which “soluble on expression in E. coli” value is on record?
**A.** not soluble

**Q.** With “SPGQGTQSENSCTHFPGNLPNMLRDLRDAFSRVKTFFQMKDQLDNLLLKESLLEDFKGYLGCQALSEMIQFYLEEVMPQAENQDPDIKAHVNSLGENLKTLRLRLRRCHRFLPCENKSKAVEQVKNAFNKLQEKGIYKAMSEFDIFINYIEAYMTMKIRN” as the sequence, how does the “soluble on expression in E. coli” value read?
**A.** soluble

**Q.** Which “soluble on expression in E. coli” value does the source give for “MSNTKTASTGFAELLKDRREQVKMDHAALASLLGETPETVAAWENGEGGELTLTQLGRIAHVLGTSIGALTPPAGNDLDDGVIIQMPDERPILKGVRDNVDYYVYNCLVRTKRAPSLVPLVVDVLTDNPDDAKFNSGHAGNEFLFVLEGEIHMKWGDKENPKEALLPTGASMFVEEHVPHAFTAAKGTGSAKLIAVNF” here?
**A.** soluble

**Q.** For “MSHPALTQLRALRYFDAIPALEPHLLDWLLLEDSMTKRFEQQGKRVSVTLIREAFVGQSEVEEASGLLPSESRYWLREILLCADGEPWLAGRTVVPESTLCGPEQVLQHLGKTPLGRYLFTSSTLTRDFIEIGRDATLWGRRSRLRLSGKPLLLTELFLPASPLY”, which “soluble on expression in E. coli” value is on record?
**A.** not soluble

**Q.** With “MSSTMKDTQEAPVRWSRNWTPDAIRALVDQDNGKLDARIYADQDLYQLELERVFGRSWLMLGHETHIPKIGDYLTTYMGEDPVIMVRQKDQSIKVFLNQCRHRGMRIVRSDGGNAKAFTCTYHGWAYDIAGNLVNVPFEKEAFCDKKEGDCGFDKADWGPLQARVETYKGLVFANWDPEAPDLKTYLSDAMPYMDVMLDRTEAGTEAIGGIQKWVIPCNWKFAAEQFCSDMYHAGTMSHLSGVLAGLPPEMDLTQIQLSKNGNQFRSAWGGHGAGWFINDSSILLSVVGPKITQYWTQGPAAEKAARRVPQLPILDMFGQHMTVFPTCSFLPGINTIRTWHPRGPNEVEVWAFVLVDADAPEDIKEEFRLQNIRTFNAGGVFEQDDGENWVEIQRVMRGHKAKSTSLCAKMGLNVPNKNNPAYPGKTAYVYAEEAARGMYHHWSRMMSEPSWDTLKP” as the sequence, how does the “soluble on expression in E. coli” value read?
**A.** soluble

Source: the DeepSol protein solubility set
